According to US20260115250A1, “METHODS OF TREATING AGE-RELATED MACULAR DEGENERATION” (Character Biosciences, Inc., priority 2022, published 2026):

Assays:
[1] = peptide binding to non-oxidized and oxidized lipids (SPR); settings: immobilized peptide; RU normalized to DMPC
Protocol: FIGS. 25A-25O show peptide binding activity to non-oxidized and oxidized lipids via SPR for indicated peptides. Peptides were reconstituted to 50 μg/mL in 10 mM acetate buffer, pH 4.5 and immobilized to ˜200 RU on a CM5 chip via amine coupling. Non-oxidized lipids (DMPC & POPC) and oxidized lipids (POVPC & KOdiA-PC) were diluted to 100 µM in HBS-EP running buffer and exposed to the chip for binding (n=3) at a flow rate of […] for 120 seconds. The surface was regenerated with 20% EtOH. T-001 served as a positive control and T-031 served as a negative control on each chip. For each peptide, the RU response for all lipids was normalized to the DMPC RU values.

[2] = DMPC solubility assay, 0.5 mM DMPC (turbidity reduction); assay type: biochemical; settings: FIGS. 2A-2D and 3A-3C
Protocol: In this example, peptide stocks were diluted to 200 μM in H2O (a 2× solution) and 50 μL of peptide solution was transferred in triplicate into 96-well plates. A one mM solution of 1,2-dimyristoyl-sn-glycero-3-phosphocholine (DMPC) in H2O was prepared, and using a multichannel pipet, 50 μL DMPC solution was rapidly added to the plate. Peptide and lipid solutions were incubated at room temperature for 15 minutes with a final concentration of 100 μM peptides and 0.5 mM DMPC. After 15 minutes, absorbance was read on a plate reader at 405 nm. […] Data are presented as mean+SD over two runs.
In these experiments, DMPC solubility titration curves were generated. Peptide stocks were diluted to 200 μM in H2O (a 2× solution) and serially diluted in H2O over 4 concentrations, then 50 μL of peptide solutions were distributed in triplicate into 96-well plates. A 1 mM solution of 1,2-dimyristoyl-sn-glycero-3-phosphocholine (DMPC) in H2O was prepared, and using a multichannel pipet, 50 μL DMPC solution was rapidly added to the plate. Peptide and lipid solutions were incubated at room temperature for 15 minutes with final concentrations of 3.16-100 μM peptides and 0.5 mM DMPC. After 15 minutes, absorbance was read on a plate reader at 405 nm. […] Data are presented as mean+SD over two runs. Non-linear regression was used to calculate EC50 values.

[3] = test system: ARPE-19 cells; test: ARPE-19 GAG-dependent cholesterol import (with or without heparin); assay type: cell-based, human; settings: ARPE-19, 10 μM peptide
Protocol: ARPE-19 cells were seeded on 96-well plates at 25,000 cells per well and grown to confluence. A 2× solution of 500 μM DMPC and 50 μM BODIPY-Cholesterol with or without 100 µg/mL heparin was prepared in serum free DMEM: F12. Peptides were diluted to 20 μM in serum free DMEM: F12 (a 2× solution). Peptides were added to lipid solution in equal parts (60 μL each) and incubated for 1 hour at 37° C. ARPE-19 cells were serum starved in serum free DMEM: F12 for 1 hour at 37° C. Peptide: Lipid complexes (100 μL total volume per well) were transferred to ARPE-19 cells for 2 hours at 37° C. Cells were washed, fixed, and intracellular fluorescence was read on Promega GloMax at 475 nm excitation, 500-550 emission. Fluorescence values were background corrected from no treatment conditions. Data are presented ±SD for 2 runs.

[4] = molecular target: LDLR (Homo sapiens, UniProt P01130); test: lipid-dependent LDLR binding (SPR), single concentration; settings: 1 μM peptide with or without 25 μM DMPC
Protocol: Peptides were diluted in 1×HBS-N buffer with 1 mM CaCl2 to a final concentration of 1 μM and incubated with or without 25 μM DMPC for 1 hour at RT to form lipid complexes. Each peptide was tested in duplicate. LDLR was diluted to 10 μg/mL in 10 mM acetate buffer pH 4.5 and was immobilized (˜400RU) on a CM5 chip via amine coupling utilizing 1×HBS-P+ buffer with 1 mM CaCl2. Test peptides (with or without DMPC) were exposed to immobilized LDLR at a flow rate of […] for 120 seconds in HBS-N with 1 mM CaCl2. Between cycles the surface was regenerated with 3, 30 second injections of 10 mM NaOH and 100 mM EDTA. Data are plotted as max RU values, averaged from three separate runs.

Sequence of LDLR (P01130 22-860): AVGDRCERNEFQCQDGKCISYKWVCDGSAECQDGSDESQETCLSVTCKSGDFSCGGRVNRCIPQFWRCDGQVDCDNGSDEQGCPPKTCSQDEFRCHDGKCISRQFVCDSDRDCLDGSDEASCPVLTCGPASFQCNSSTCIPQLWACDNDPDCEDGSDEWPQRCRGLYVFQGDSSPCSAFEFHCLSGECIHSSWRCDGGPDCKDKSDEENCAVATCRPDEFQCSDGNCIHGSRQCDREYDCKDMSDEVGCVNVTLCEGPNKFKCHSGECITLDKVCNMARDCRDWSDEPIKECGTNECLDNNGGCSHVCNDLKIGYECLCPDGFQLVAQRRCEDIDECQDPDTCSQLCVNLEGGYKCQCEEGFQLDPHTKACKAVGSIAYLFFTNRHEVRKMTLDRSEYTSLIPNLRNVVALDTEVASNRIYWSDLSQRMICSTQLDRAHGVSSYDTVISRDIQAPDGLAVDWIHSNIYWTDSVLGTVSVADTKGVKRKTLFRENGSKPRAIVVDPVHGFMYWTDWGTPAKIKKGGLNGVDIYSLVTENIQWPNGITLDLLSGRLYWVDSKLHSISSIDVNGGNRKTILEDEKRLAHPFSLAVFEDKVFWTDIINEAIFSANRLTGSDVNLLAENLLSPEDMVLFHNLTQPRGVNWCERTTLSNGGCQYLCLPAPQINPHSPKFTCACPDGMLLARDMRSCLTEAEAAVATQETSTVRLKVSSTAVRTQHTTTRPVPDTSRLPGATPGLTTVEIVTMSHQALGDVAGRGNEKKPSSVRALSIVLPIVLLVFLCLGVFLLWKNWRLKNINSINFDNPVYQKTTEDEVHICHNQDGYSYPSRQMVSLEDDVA

B1: T-013: therapeutic peptide (peptide)
chain: TRARLSKELQAAQARLGADMEDVRGRLVQYRGEVQAMLGQSTEELRVRLASHLRKLRKRLLRDADDLQKRLAVYQA
binding to oxidized lipids relative to DMPC [1]: binding to at least one oxidized lipid that was equivalent or improved to binding against DMPC | DMPC solubilizing activity [2]: significant activity | GAG dependence of cholesterol import [3]: rely on GAG binding for cholesterol import activity | lipid-dependent LDLR binding (RU with lipid vs peptide alone) [4]: lipid-dependent LDLR binding activity
